Test results as given in PMC3630103, “Development of a Highly Protective Combination Monoclonal Antibody Therapy against Chikungunya Virus” (PLoS Pathogens, 2013).

Key:
[1] = target: CHIKV pE2-E1 (E3-E2-E1) of the CHIKV-LR strain (Chikungunya virus La Reunion 2006 OPY-1 …, strain); test: cell-based or functional assay
CHIKV 181-25 virion = target: T1, CHIKV 181-25 virion (Chikungunya virus, strain 181/25 …, UniProt Q88628, strain); test: ELISA; virion capture competition ELISA: plates coated with 5 µg/ml CHK-65, 3x10^6 FFU of CHIKV 181-25 captured, incubated with mouse MAbs for one hour, washed, then 125 ng/ml hu-CHK-152, detected with biotin-labeled goat anti-human antibody and HRP-streptavidin; conditions: one partner purified
T1 construct: E2 envelope glycoprotein of Chikungunya virus strain 181-25, on virions; E1 envelope glycoprotein of Chikungunya virus strain 181-25, on virions; Whole virus particle captured on the plate by the MAb CHK-65; the capsid protein inside the particle is not written as a chain; also called CHIKV virion; virions; copies: 240 + 240

B1: CHK-263 (mouse monoclonal antibody) (antibody, V domains shown)
VH: QVQLQQSGAELVKPGASVKISCKASGYAFSSYWMNWVKQRPGKGLEWIGQIYPGDGDTNYNGKFKGKATLTADKSSSTAYMQLSSLTSEDSAVYFCARGGLTIDYWGQGTTLTVSS
VL: DIVLTQSPATLSVTPGDSVSLSCRASQSISDNLHWYQQKSHESPGLLIKYASQSISGIPSRFSGSGSGTDFTLSINSVETEDFGMYFCQQSNSWPYTFGGGTKLEIK
[1]
  EC50 of neutralisation of CHIKV-LR (FRNT on NIH 3T3 cells): 0.002 µg/mL
  EC50 of neutralisation of CHIKV-LR (FRNT on Vero cells): 0.005 µg/mL
  EC90 of neutralisation of CHIKV-LR (FRNT on Vero cells): 0.136 µg/mL

B2: CHK-102 (mouse monoclonal antibody) (antibody, V domains shown)
VH: QVQLQQSGAELVKPGASVKISCKTSGYAFSSFWMHWVKQRPGKGLEWIGQIYPGDGDTNYNGKFKDKATLTADKSSNTAYMQLTSLTSEDSAVYFCARNLLFDYWGQGTTLTVSS
VL: EILMTQSPAILSVSPGERVSFSCRASQSIGSNIHWYQQRTNGSPRLLIKYASESISGIPSRFSGSGSGTDFTLSINSVESEDIADYYCQQNNIWPFTFGSGTKLEIK
[1]
  EC50 of neutralisation of CHIKV-LR (FRNT on NIH 3T3 cells): 0.03 µg/mL
  EC50 of neutralisation of CHIKV-LR (FRNT on Vero cells): 0.014 µg/mL
  EC90 of neutralisation of CHIKV-LR (FRNT on Vero cells): 0.351 µg/mL

B3: CHK-152 (mouse monoclonal antibody) (antibody, V domains shown)
VH: QVQLQQPGAALVKPGASAMMSCKASGYTFTSYWITWVKQRPGQGLEWIGDIYPGTGRTIYKEKFKTKATLTVDTSSSTAFMQLNSLTSEDSAVYYCARGYGSPYYALDYWGQGTSVTVSS
VL: DIVLTQSPASLAVSQGQRATISCKASQSVDYDGDSYVNWYQQKPGQSPKLLIYDASNLESGIPARFSGSGSGTDFTLNIHPVEEEDVATYYCQESNEDPRTFGGGTKLEIK
notes: mouse VH of CHK-152; mouse IgG heavy-chain constant region; mouse VL of CHK-152; mouse light-chain constant region; also called murine CHK-152; mouse CHK-152
[1]
  EC50 of neutralisation of CHIKV-LR (FRNT on NIH 3T3 cells): 0.001 µg/mL
  EC50 of neutralisation of CHIKV-LR (FRNT on Vero cells): 0.002 µg/mL
  EC90 of neutralisation of CHIKV-LR (FRNT on Vero cells): 0.01 µg/mL
CHIKV 181-25 virion
  binding result: binds

B4: CHK-166 (mouse monoclonal antibody) (antibody, V domains shown)
VH: EVRLVESGGGLEQPGGSLKLSCAASGFTFSDYFMYWVRQTPEKRLEWVAYISNGGISTFYSDAVKGRFTISRDNARNTLYLQMSRLKSEDTAIYYCVRQVYGQGYFDYWGQGTTLAVSS
VL: QIVLIQSPAIMSASLGERVTMTCTASSSVSSSYLHWYQQKPGSSPKLWIYSSFSLASGVPARFSGSGSGTSYSLTISTMEAEDAATYYCHQYLRSPWTFGGGSKLEIK
[1]
  EC50 of neutralisation of CHIKV-LR (FRNT on NIH 3T3 cells): 0.202 µg/mL
  EC50 of neutralisation of CHIKV-LR (FRNT on Vero cells): 0.154 µg/mL
  EC90 of neutralisation of CHIKV-LR (FRNT on Vero cells): 8.6 µg/mL
